Laboratory results: FireProtDB (doi:10.1016/j.jmb.2005.05.056)
Values joined by “and” are separate entries in the source; they are usually repeats but may differ in a detail not shown here. Equal entries are not always repeated.

Conditions: Thermus thermophilus; pH 8; 25 °C; GdnHCl; Fluorescence; Tris-HCl 50 mM; reversible: No; whole UniProt chain shown

B1: Small ribosomal subunit protein bS6 wild type, P23370 (protein)
chain: MRRYEVNIVLNPNLDQSQLALEKEIIQRALENYGARVEKVEELGLRRLAYPIAKDPQGYFLWYQVEMPEDRVNDLARELRIRDNVRRVMVVKSQEPFLANA
**Q.** Which denaturant m value does the source give for B1 here?
**A.** 2.54 kcal/mol/M and 2.76 kcal/mol/M and 2.7 kcal/mol/M
